The values that follow come from the RNAGym collection of RNA variant scans (doi:10.7554/elife.80360).

B1: HDV Ribozyme (parent)
chain: GGCCGGCAUGGUCCCAGCCUCCUCGCUGGCGCCGGCUGGGCAACAUUCCGAGGGGACCGUCCCCUCGGUAAUGGCGAAUGGGACCCA

The variants in this series derive from B1. The series is described as follows: self-cleavage, relative activity (ratio to wild type); higher = more cleavage; co-transcriptional.
As to U27C C64U, the self-cleavage stood at 0.895.

Regarding C26U G81C, the self-cleavage was determined as 0.748. As to U27A G82A, the self-cleavage came out at 0.849. In the case of U27A C36U, the self-cleavage stood at 0.538. As for U27A C36A, the self-cleavage came out at 0. As for C26U G59C, the self-cleavage turned out to be 0.935. As for C26U G59U, the self-cleavage worked out at 0.881.

On to C26U G28C, for which the self-cleavage was determined as 0.19. On to C26U G28U, for which the self-cleavage was 0.277. On to U27A U60C, for which the self-cleavage was 1.21. Consider U27G A87G, for which the self-cleavage turned out to be 0.774.

On to U27G A87U, for which the self-cleavage came to 0.763. U27C A71G: the self-cleavage came out at 0.677. With U27C A71U, the self-cleavage stood at 0.639. The result for U27C A71C reads 0.458; that for C26U C41U, 1.06; that for U27C A51C, 0.858. For the variant U27C A51G, the self-cleavage was 0.914.

With U27G C64G, the self-cleavage is 0.87. As to U27A A45U, the self-cleavage was 0.458. Turning to U27A A45G, the self-cleavage was found to be 0.745. As to C26U C33A, the self-cleavage is 0.307. Turning to U27C A42U, the self-cleavage was 0.475. With U27A C58A, the self-cleavage is 0.997. With U27A C58U, the self-cleavage came to 0.937.

As for U27C G29U, the self-cleavage stood at 0.145. On to U27C A45C, for which the self-cleavage came out at 0.237.

Turning to C26U G35C, the self-cleavage came out at 0.288. As to C26U G35U, the self-cleavage amounted to 0.641. As for U27C C66A, the figure is 0.59. Take U27C C66G: the self-cleavage is 0.692. On to U27A U47G, for which the self-cleavage is 0.89.

U27A A42U: the self-cleavage is 0.

As to U27A A42C, the self-cleavage worked out at 0.0831.

For the variant U27A A78U, the self-cleavage came out at 0.256. As for C26U G76U, the self-cleavage was determined as 0.963. Regarding C26U G76A, the self-cleavage is 1.04. Regarding U27A G73C, the self-cleavage worked out at 0.0639.

With U27A C41A, the self-cleavage worked out at 0.895.

On to U27A C61A, for which the self-cleavage is 0.906.

Take C26U A70C: the self-cleavage came out at 1.08. With U27A U72A, the self-cleavage is 0.266.

Consider U27A U72G, for which the self-cleavage turned out to be 0.739. Turning to U27C G80C, the self-cleavage was 0.101. As to U27C C58A, the self-cleavage came to 0.458. Turning to U27C C58U, the self-cleavage is 0.539.

In the case of U27C G81C, the self-cleavage was found to be 0.369. C26U G50A: the self-cleavage was determined as 1.07. Take C26U C84U: the self-cleavage is 1.05. As for C26U C84A, the figure is 1.15. The result for U27A G35A reads 0.369. U27A G35C: the self-cleavage turned out to be 0.201. As for U27A G35U, the figure is 0.201; as for C26G U37A, 0.213; as for U27A U69A, 0.831. With U27A U69G, the self-cleavage was determined as 1.02. In the case of U27A U69C, the self-cleavage worked out at 1.11. Regarding C26U G34C, the self-cleavage stood at 0.224.

Take U27A C64U: the self-cleavage was 0.855. As for U27C C86U, the figure is 0.745; as for U27C C86A, 0.875. In the case of C26U G55C, the self-cleavage is 0.954. Take C26U G55U: the self-cleavage is 0.929.

On to C26U G55A, for which the self-cleavage came to 1.05. The result for U27C C85A reads 0.978. Consider U27C C85U, for which the self-cleavage turned out to be 1.04.

Consider C26U G29A, for which the self-cleavage worked out at 0.332. In the case of C26U G29C, the self-cleavage came to 0.0959.

Turning to U27C U65A, the self-cleavage stood at 0.957. With U27C U65G, the self-cleavage stood at 0.831. For the variant U27C U79C, the self-cleavage came to 0.101.

On to U27C U79A, for which the self-cleavage amounted to 0.511. As for U27C U79G, the figure is 0.32; as for U27G C66U, 1.02; as for U27G C66A, 0.532.

Turning to U27C C84U, the self-cleavage amounted to 0.65. The result for U27C C84A reads 0.923; that for U27C A87C, 0.595. In the case of U27C G76A, the self-cleavage was determined as 0.869.

U27C G76U: the self-cleavage is 0.883. Take U27C C48G: the self-cleavage was determined as 0.831. For U27A G40A, the self-cleavage amounted to 0.886.

Regarding U27A G40U, the self-cleavage amounted to 0.793. For the variant U27C U46C, the self-cleavage came out at 0.138. As for U27C U46G, the figure is 0.332; as for U27C G52U, 1.01; as for U27A A87C, 0.88. Turning to U27C C33U, the self-cleavage came out at 0.453. Regarding U27C C33G, the self-cleavage came out at 0.237. As for U27C A83U, the figure is 0.465; as for U27C A83G, 0.727; as for U27C A83C, 0.554.

U27C A77C: the self-cleavage stood at 0.192. As for U27A U65A, the self-cleavage is 0.95. Consider C26G U60A, for which the self-cleavage came out at 1.05. Turning to C26G U60C, the self-cleavage was 1.31. In the case of C26U U69C, the self-cleavage came out at 1.12.

As to C26U U69A, the self-cleavage came out at 1.11. Consider U27A C48G, for which the self-cleavage came to 1.09. U27A C48A: the self-cleavage turned out to be 0.831. Consider C26U G82A, for which the self-cleavage is 0.769.

As for C26U G82U, the self-cleavage came out at 0.769.

As to U27C U47C, the self-cleavage was found to be 0.511. In the case of U27C U47A, the self-cleavage stood at 0.519.

Take U27C U47G: the self-cleavage came out at 0.782. Take C26G U69G: the self-cleavage is 0.787. For U27C C63G, the self-cleavage was found to be 0.639. In the case of U27C C63A, the self-cleavage came out at 0.883. For U27G A43G, the self-cleavage is 0.302. Turning to U27G A43C, the self-cleavage is 0.166. U27C C41A: the self-cleavage came out at 0.192. For U27C C41U, the self-cleavage is 0.604.

In the case of U27C C41G, the self-cleavage was 0.217. Take U27G C75U: the self-cleavage was found to be 0.138. In the case of U27C G67A, the self-cleavage was 0.886. U27C G67C: the self-cleavage is 0.997.

In the case of U27C G67U, the self-cleavage stood at 0.798. Turning to C26U A87U, the self-cleavage was found to be 1. Take C26U A87C: the self-cleavage is 0.953. For C26U A87G, the self-cleavage came to 1.04. Take U27A G55U: the self-cleavage is 1.14.

In the case of C26U C66U, the self-cleavage turned out to be 1.02. On to U27C C30G, for which the self-cleavage was 0. Turning to U27C C30U, the self-cleavage turned out to be 0.426. Regarding U27C C30A, the self-cleavage was found to be 0.415. With U27C U60C, the self-cleavage amounted to 0.677. Turning to U27C U60G, the self-cleavage came out at 0.875.

On to U27G A78C, for which the self-cleavage is 0.499. The result for U27G A78G reads 0.532. As for U27A G50U, the figure is 0.99; as for C26U U60C, 0.95; as for U27G A56U, 0.692. As for C26U C36G, the figure is 0.162; as for C26U C36A, 0; as for U27C G54C, 0.538. On to U27C C36U, for which the self-cleavage was determined as 0.404.

As to U27G A83U, the self-cleavage came to 0.791.

On to U27G A83G, for which the self-cleavage stood at 0.755.

As to C26U U47A, the self-cleavage was 1.16. Consider U27A G76U, for which the self-cleavage stood at 0.65.

For the variant C26U C58A, the self-cleavage amounted to 1.03.

For the variant C26U C58G, the self-cleavage came out at 0.831.

Take C26U C58U: the self-cleavage came to 1.16. With C26U C61G, the self-cleavage is 1.19.

As to C26U G74C, the self-cleavage worked out at 0.519.

As to C26U G74A, the self-cleavage is 0.717. In the case of U27C G50C, the self-cleavage came to 0.858. As for U27A G31A, the figure is 0.743. As for U27A G31C, the self-cleavage was 0.378. As for U27A A43G, the self-cleavage came to 0.237. Regarding C26G U46C, the self-cleavage turned out to be 1.15. On to U27A A70U, for which the self-cleavage worked out at 0.985. Regarding C26G U65A, the self-cleavage stood at 0.655.

On to C26G G80A, for which the self-cleavage stood at 0.789. Take C26G G80U: the self-cleavage was determined as 0.261.

On to U27A G28A, for which the self-cleavage was 0.0811. As for U27A G28C, the self-cleavage is 0. For the variant C26U U79C, the self-cleavage is 0.671. The result for C26U U65A reads 0.769; that for U27C C62U, 0.851. In the case of U27C C62G, the self-cleavage came out at 0.615. Regarding U27A A51U, the self-cleavage stood at 0.739. Regarding U27G A71C, the self-cleavage turned out to be 0.7. For U27C C32A, the self-cleavage was 0.0519. As for C26U G73U, the figure is 0.502.

Take U27A G59A: the self-cleavage came to 0.919. As for U27A G68A, the figure is 0.944.
